{"source": "paper PMC8635274", "key": {"mCherry-FKBP-Ubc9 [1]": {"target": "mCherry-FKBP-Ubc9 (UniProt P63279)"}, "mCherry-FKBP-Ubc9 [2]": {"target": "mCherry-FKBP-Ubc9 (UniProt P63279)", "remark": "listed apart in the source"}}, "data": [{"substance": "FKBP-RanGAP (from UniProt P46060 398-587)", "values": [{"measurement": "KM of SUMOylation of RanGAP by E2 (Ubc9), without scaffolds", "setting": "mCherry-FKBP-Ubc9 [1]", "value": 2.5, "unit": "µM"}]}, {"substance": "FKBP-EGFP-RanGAP* (from UniProt P46060 398-587)", "values": [{"measurement": "KM of SUMOylation of RanGAP* by E2 (Ubc9), without scaffolds", "setting": "mCherry-FKBP-Ubc9 [2]", "value": 150, "unit": "µM"}]}]}
